Test results from patent publication US20120178139A1.

Molecular target: mouse glycophorin-A on mouse erythrocytes (mouse) (UniProt P14220)
Assay: in vivo, flow cytometry of circulating erythrocytes after intravenous administration

How did the cell-surface half-life turn out when “8-arm PEG-ERY1 (8-arm PEG-ERY1-ALEXAFLUOR647)” was run?
The cell-surface half-life was 2.2 h.
